Experiment: yeast display, Sf9 membrane polyspecificity reagent, FACS + sequencing; frameworks hold sequencing errors
How it was run: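 Polyreactivity labels are assigned by the sorting gate from which each nanobody was recovered. The gates were low and high (top ~1%), set on anti-HA fluorescence for expression and streptavidin fluorescence for reagent binding. Before sorting, galactose-induced (36–48 hours) yeast display cells were stained for 1 hour at 4 °C with 10% biotinylated, detergent-solubilized Sf9 membrane reagent.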

Row | Sequence | polyreactivity (PSR sort gate)
1 | QVQLVESVGGLVQAGGRLRLSCAASGFIFYEYAMGWYRQAPGKERELDPAITSGGSTDYADSVKGLFTISRDNAKNTVYLQMNSLKPEDTAVYYCNADLFTGYYWYNYCGQGTQVTVSS | low polyreactivity
2 | QVQLVESVGGLVQAGGSHRLSCAASGSIFYYYDMGWYRQGPGKERELFAAINRGVGSTFYADSVKGRFTISRENAKNTVYLQMNSLKPEDTAVDYCSSRWYSRTRAYNYWGQGTQVTVSS | low polyreactivity
3 | QVQLVESVGGLVQAGGSLLLSCAASGGIFWVYAMGWYRQAPGKERELVAAISNSDTSTSYADSVKGRFTISRDNAKNTVFLQMNSLKPEDTAVYYCNADSPSLSGDYWGQGTQVTVSS | low polyreactivity
4 | QVQLVESVGGLVQAGGSLPLSGAASGSILGFNAMGWSRQAPGKDRELVASITTSGGSTYFADSVKGRFTISRDNAKNTVYLQMNSLKPEDTAVYYCAAYRRYQFVTYYYWGQGTQVTVSS | high polyreactivity
5 | QVQLVESVGGLVQAGGSLRFTCAASGGTFRVNAMGWYRQAPGKEREFVAAISGSGSSTYYADSVKGRFTISRDNAKNTVYLQMNSLKPEDTAVYYCAARSGVGGDNDYWGQGTQVTVSS | low polyreactivity
6 | QVQLVESVGGLVQAGGSLRIICAASGITLAWYSMGWYRKAPGKERELVASISSSGSTNYADSVKGRFTISRDNAKNTVYLQMNSLIPEETAVYYCNKDYLLLHYYIYVIEGDYWGQGTQVTVSS | low polyreactivity
7 | QVQLVESVGGLVQAGGSLRISCAASGFIFEVYAMGWYRQAPGKERELIAAIRWSGTSTYYAYSVKGRFTISRDNAKNTFYLQMNSLKPEDTAVYYCAADSWDWHIGGEDYWGQGTQVTVSS | low polyreactivity
8 | QVQLVESVGGLVQAGGSLRISCAASGSIFAINAMGWYRQAPVKERELVAAIRTAGRTYYADSVKGRFTISRDNAKNTVYLQMNSLKPEDSSVYDCNDGGKWIGSDYWGQGTQVTVSS | high polyreactivity
9 | QVQLVESVGGLVQAGGSLRLICAASGSTFNWYAMGWYRQAPGKERDLVADITWRDGSTYYADSVKGRFTISRDNAKNTVYLQMNSLKPDDPAVYYCADDYTYWGIFFGYWGQGTQVTVSS | high polyreactivity
10 | QVQLVESVGGLVQAGGSLRLSCAAAGRTFTLYAMGWYRQATGKERELVAAIRWSGSSTYSADSVKGRFTISRDNAKNTVYLQMNSLKPEDTAVYACDARAGRYDRYGYWGQGTQVSVSS | high polyreactivity
11 | QVQLVESVGGLVQAGGSLRLSCAASALAMGWYRHAPGKERELVAVITSDGRTYYADSVKGRFTISRDNAKNTVYLQMNSLKPEDTAVYYCARDSRTIRYYAWFYPFRYDYWGQGTQVTVSS | low polyreactivity
12 | QVQLVESVGGLVQAGGSLRLSCAASALTFQNNAMGWYRQAPGKEREFVATITSVGRTNYADSVKGRFTISRDNAKNTVYLQMNSLNPEDTAVYYCAASKARWPRGGSKYYYWGQGTQVTVSS | high polyreactivity
13 | QVQLVESVGGLVQAGGSLRLSCAASGFIFASYAMGWYRQAPGKERELVAAISWRGGSTYYADSVKGRFTISRDNAKNTVYLQMNSLKPEDTAVYYCKAYVYVGTGRGYDTLDYWGQGTQVTLSS | low polyreactivity
14 | QVQLVESVGGLVQAGGSLRLSCAASGFIFSPYAMGWYRQAPGKERELVAAISWNGGRTYYADSVKGRFTISRDYAKNTVYLQMNSLKPEDTAVYYCAASFRNPYSHGYWGQGTQVTVSS | high polyreactivity
15 | QVQLVESVGGLVQAGGSLRLSCAASGFILRVNDMGWYRQAPGKERELVAAISQGDGSTYYADSVKGRFTISSDNAKNSVYLQMNSLKPEDNAVYYCNAELYRDLGGYDHWGQGTQVTVSS | low polyreactivity
16 | QVQLVESVGGLVQAGGSLRLSCAASGFTFARYAMGWYIQAPGKERELVAAISISGGRTYYADSVKGRFTISRDNAKNTVYLQMNSLKPEDTAVYYCNKGHVPSYDYNYWGQGTQVTVSS | high polyreactivity
17 | QVQLVESVGGLVQAGGSLRLSCAASGFTFHAYAMGWYRQAPGKERELVAVITRGGSTYYADSVKRRFTISLDNAKNTVYLQMKSLKPEDTAVYYCAAVRTKDWRGPEMDYWGQGTQVTVSS | high polyreactivity
18 | QVQLVESVGGLVQAGGSLRLSCAASGFTFVYNAMGWYRQAPGKEREMVAAISSRGGSTFYADSVKGRFTISRDNAKNTVYLQMNSLKPEDTAVYYCNAVPGWTYDYWGQGTQVTVSS | high polyreactivity
19 | QVQLVESVGGLVQAGGSLRLSCAASGITFGYNAMGWYRQAPGKERELVASISYSGDSTYYADSVKGRFTISRDNAKNSVYLQMNSLKPEDTGVYYCAAGRQVLKRRYDYWGQGTQVTVSS | low polyreactivity
20 | QVQLVESVGGLVQAGGSLRLSCAASGITFYGYTMGWYIQAPGKERELVAAITSGGITYYADSVKGRFTISRDNAKNTVYLQMNSLKPEDTAVYYCAARRYCYTSITWYDYWGQGTQVTVSS | high polyreactivity
21 | QVQLVESVGGLVQAGGSLRLSCAASGITFYYYVMGWYRQAPGKERELVAAIDTGDSTYYADSVKGRFTISRDNAKNTVYLQMNSLKPEDTAVYYCAVDYEADNELNGPDQEYGRDSWGQGTQVTVSS | low polyreactivity

Row | Sequence | polyreactivity (PSR sort gate)
22 | QVQLVESVGGLVQAGGSLRLSCAASGLIFLVNAMGWYRQAPGKERELVAAIDRDGGITYADSVKGRFTISRDNAKNTVYLQLNSLKPEDTAVYYCAADPSSYGRFTYDYWGQGTQVTVSS | low polyreactivity
23 | QVQLVESVGGLVQAGGSLRLSCAASGLTFYVYAMGRYRQAPGKERELVAAITQNGGTTYYADSVKGRFTISRDNAKNTVYLQMNSLKPEDTAVYNCAARRLYAGHQYDYWGQGTQVTVSS | high polyreactivity
24 | QVQLVESVGGLVQAGGSLRLSCAASGNTFYAYAMGWYRQAPGKERELVAAIRKSGGNTYYADSVKGRFTISRYNAKNNVYLQMYSLKPEDTAVYYCAARYRGYAFLNYDYWGQGTQVTVSS | low polyreactivity
25 | QVQLVESVGGLVQAGGSLRLSCAASGRIFAPYAMGWYRQAPGKERELVAAIRWRGGSTSYADSVKGRFTISRDNAKNTVYLQMNSLKPEDTAVYYCNADYGFSFYWYDYWGQGTQVTVSS | low polyreactivity
26 | QVQLVESVGGLVQAGGSLRLSCAASGRIFARYAMGWYRQAPGKERELVAAITKSVGSTYYADSVKGRFTISRDNAKKTVYLQMNSLKPEDTAVYYCARVVADSEYDYWGQGTQVTVSS | high polyreactivity
27 | QVQLVESVGGLVQAGGSLRLSCAASGRIFGVYAMGWYRQAPGKERELVAAISEGGGSTNYADSVKGRFTISRDNAKNTVYLQMNSLKPEDTAVYYCAATYRTGVRRYYSWGQGTQVTVSS | low polyreactivity
28 | QVQLVESVGGLVQAGGSLRLSCAASGRIFLIYSMGWYRQAPGKERELVADISKGGSSTYYADSVKGRFTISRDNAKNTVYLQMNSLKPEDSAVYYCAASGRWTGRQAAYDYWGQGTQVTVSS | high polyreactivity
29 | QVQLVESVGGLVQAGGSLRLSCAASGRIFLWYAMGWYRQAPGKERELVAAISGSGGSTSYADSVKGRITISRDNAKNTVYLQMNSLKPEDTAVYYCAALYRTWARYKVYYWGQGTQVTVSS | high polyreactivity
30 | QVQLVESVGGLVQAGGSLRLSCAASGRIFSVNAMGWYRQAPGKERELVAAITTRGGTTYYADSVKGRFTISRDNAKNTVYLQMNSLKPEDTAVYYCAAESSWYVYWEWAHDYWGQGTQVTVSS | low polyreactivity
31 | QVQLVESVGGLVQAGGSLRLSCAASGRIFSVYTMGWYRQAPGKERELVAAISSGASTNYADSVKGRFTISRDNAKNTVYLQMNSLKPEDTAVYYCNAQWYLRLGASKTWVDVDYWGQGTQVTVSS | low polyreactivity
32 | QVQLVESVGGLVQAGGSLRLSCAASGRISNDYAMGWYRQAPGKERELVATITFSGGDTYYADSVKGRFTISRDNAKNTVYLQMNSLKPEETAVYYCAASKWRSYSGVWWRLLFDYWGQGTQVTVSS | low polyreactivity
33 | QVQLVESVGGLVQAGGSLRLSCAASGRTFDSNAMGWYRQAPGKERELVAAISYSGGSTYYADSVKGRFTISRDNAKNTVYLQMNSLKPEDTAVYYCNAGAVHKKPARDYWGQGTQVTVSS | low polyreactivity
34 | QVQLVESVGGLVQAGGSLRLSCAASGRTFGRYAMGWYRQAPGKERELVAGISRSGDSTHYADSVKGRFTISRDNAKNTVYLQMNSLKPEDTAVYYCNKETPTIGARKYEYWGQGTQVTVSS | low polyreactivity
35 | QVQLVESVGGLVQAGGSLRLSCAASGRTFRFYTMGWYRQAPGKERELVADISWTSGRTYYADSVKGRFTISRDNAKNTVYLQMKSLKPEDTAVYYCAAYFFSRYSLYDYWGQGTQVTVSS | high polyreactivity
36 | QVQLVESVGGLVQAGGSLRLSCAASGRTFSGNAMGWYIQAPGKERELVAGISTSGGSTYYADSVKGRFTISRDNSKNTVYLQMNSLKPEDTAVYYCNARSRYRYYRSFGGDYWGQGTQVTVSS | high polyreactivity
37 | QVQLVESVGGLVQAGGSLRLSCAASGRTFYTYAMGWYRQAPGKERELVAAISSSGSTYYADSVKGRFTISRDNAKKTVYLQMNSLKPEDTAVYYCNARTSRYRRGGDSWGQGTQVTVSS | high polyreactivity
38 | QVQLVESVGGLVQAGGSLRLSCAASGRTIVSNAMGWYRQAPGKERELVAAITRGSRTYYADSVKGRFTISRDNAKNTVYLQMNSLKPEDTAVYYCNARHVRYPFTGNYWGQGTQVTVSS | high polyreactivity
39 | QVQLVESVGGLVQAGGSLRLSCAASGRTVGGNAMGWYRQAPGKERELVAAINRSGGTTYYADSVKGRFTISRDNAKNTVYLQMNSLKPEDTAVYYCAARRTVSATRMGYWGQGTQVTVSS | high polyreactivity
40 | QVQLVESVGGLVQAGGSLRLSCAASGSIFGPNAMGWYRQAPGKERELVAAISLSTGSTYYADSVKGRFTISRDTAKNTVYLQMNSLKPEDTAVYYCAAYYVTPIYYYWGQGTQVTVSS | low polyreactivity
41 | QVQLVESVGGLVQAGGSLRLSCAASGSIFGTYAMGWYRQAPGKERELVAAISWRGGTYYADSVKGRFTISRDNAKNTVYLQMNSLKPEDTAVYYCNKLYTHRALGRLDYWGQGTQVTVSS | high polyreactivity

From the nanobody polyreactivity screen of Harvey et al. (2022)
